Reference: the RNAGym collection of RNA variant scans (doi:10.7554/elife.80360)

B1: Hairpin Ribozyme (parent)
chain: GUCCUCUUUCACGUGCGCGUGAAAGAGAGAAGUGAACCAGAGAAACACACGUUGUGGUAUAUUACCUGGUA

Variants of: B1
Assay: self-cleavage, relative activity (ratio to wild type); higher = more cleavage; co-transcriptional

Variant | self-cleavage
C3U C38A | 0.106
C3U U58A | 0.257
C3G G13U | 0.259
C3G C38G | 0.0857
C3G C38U | 0.133
C3A C48A | 0.152
C4A A39C | 0.166
C4G A61U | 0.0796
C4G A61C | 0.164
C4G A61G | 0.098
U2G U70C | 0.12
U2G U70G | 0.244
C4G G29C | 0.0848
C3U U53G | 0.517
C4U A11U | 0.256
C4U A11G | 0.425
C3A A43G | 0.143
C4A A71G | 0.346
C3A U52C | 0.619
C3A C50A | 0.145
C3A C50U | 0.236
C3A U5G | 0.117
C3A U5C | 0.247
C4A U62A | 0.167

Variant | self-cleavage
C4A U62C | 0.118
C3U C50G | 0.174
C3U C50U | 0.187
C3G G27U | 0.164
C3U A71G | 0.653
C3A A47C | 0.239
C3U G68A | 0.183
C4G G68C | 0.134
C4G G68U | 0.0845
C3U A28U | 0.582
C3U A28G | 0.554
C3U U62C | 0.23
C4A G15C | 0.358
C4A G19A | 0.174
C3U U7A | 0.427
C4A A36C | 0.138
C4A C16G | 0.236
C3G G17U | 0.365
C3U G15C | 0.727
C3A A61C | 0.16
C3G A43G | 0.0516
C3G A43C | 0.168
C3G A43U | 0.111
C3U A36U | 0.33

Variant | self-cleavage
C3G U9G | 0.0419
C4A U5A | 0.125
C4A C65U | 0.137
C4G U55G | 0.113
C4G A26C | 0.259
C3U G54A | 0.251
C3G C10U | 0.213
C4G A30G | 0.069
C3A G13A | 0.628
C3U U14C | 0.451
C3U U14A | 0.495
C3U U67A | 0.0952
C3U U60A | 0.446
C3A G19U | 0.582
C3A G19C | 0.535
C4A G32U | 0.168
C4A G32C | 0.155
C4A G32A | 0.195
C4A A24C | 0.137
C3U A64U | 0.238
C3U A64C | 0.0981
C3G A61U | 0.0942
C3G A61G | 0.0947
C3U C66A | 0.0858

Variant | self-cleavage
C4A C10A | 0.16
C4A C10U | 0.261
C3G A23C | 0.194
C3G U8C | 0.166
C3G G40A | 0.0852
C3G G40U | 0.0655
C3G G40C | 0.147
C4G G40C | 0.164
C3U C46U | 0.151
C3G G34C | 0.911
C3A G51A | 0.819
C4A A49G | 0.157
C4A A49C | 0.213
C3A C12G | 0.636
C3A C12A | 0.603
C4A U67A | 0.155
C4A U67G | 0.144
C3G G69U | 0.141
C3G A24G | 0.294
C3G A24C | 0.238
C3G A24U | 0.248
C4G U58G | 0.241
C3A C6A | 0.484
C3U U55C | 0.153

Variant | self-cleavage
C4A U52C | 0.182
C4A U52G | 0.22
C3U A26U | 0.27
C3G C50U | 0.13
C3G C50A | 0.0499
C4G C48A | 0.151
C4A U7G | 0.221
C3A C10A | 0.461
C3A C38G | 0.156
C4G C50G | 0.0987
C3G C18G | 0.34
C3G C18U | 0.341
C3U G42C | 0.218
C3G G68C | 0.188
C3G A28G | 0.362
C3G A28C | 0.541
C3A U63C | 0.154
C3A U63G | 0.174
C3U A22C | 0.491
C3U A22G | 0.603
C3A U33G | 0.146
C3A U33C | 0.191
C4G G56U | 0.148
C4G G56A | 0.249

Variant | self-cleavage
C4A A45G | 0.151
C4A A45U | 0.148
C3A G25A | 0.457
C3G A59C | 0.064
C4A A31U | 0.245
C3G U33G | 0.156
C3G U33C | 0.143
C4A U55G | 0.107
C3A C65A | 0.662
C4A G21U | 0.178
C4A G21C | 0.175
C3G U70G | 0.272
C4G U52C | 0.174
C3A C37G | 0.32
C4G C38A | 0.0909
C4G A44C | 0.136
C4G C46A | 0.102
C4G C46U | 0.235
C3U C10A | 0.276
C3U C10U | 0.454
C4A A61U | 0.122
C4A A61C | 0.173
C4A A61G | 0.279
C3U G19A | 0.443

Variant | self-cleavage
C3U G19C | 0.373
C4A G17C | 0.225
C3A G57U | 0.153
C3G A30C | 0.0439
C3G A30U | 0.118
C3U U8G | 0.245
C4U | 0.371
C4A | 0.218
C4G | 0.225
C4A C6G | 0.161
C4A C6U | 0.143
C3A A11C | 0.618
C3A A11G | 0.686
C3G C16U | 0.305
C3A A23C | 0.484
C3A A23U | 0.619
C3U G29U | 0.117
C3U G29C | 0.106
C4A U33G | 0.234
C3A G27C | 0.21
C4G G32A | 0.154
C4G C65G | 0.178
C4G C65U | 0.224
C4G C65A | 0.206

Variant | self-cleavage
C4A G13C | 0.223
C4A A59G | 0.145
C4G U5G | 0.0498
C4G U5A | 0.203
C4G G54U | 0.228
C3G A36U | 0.174
C4A U60A | 0.197
C3U A44G | 0.254
C3G G21U | 0.252
C4G G57C | 0.143
C4G A23U | 0.147
C3G U58G | 0.0994
C3G U58C | 0.311
C4G G27C | 0.653
C3U A43C | 0.161
C3U U52C | 0.611
C3U U52G | 0.446
C3U U5G | 0.318
C3A A35C | 1.15
C4A G51C | 0.261
C4G A22G | 0.326
C4G A22U | 0.196
C4G A39U | 0.123
C4A G69A | 0.141

Variant | self-cleavage
C4A G57U | 0.169
C3U C16A | 0.462
C3A G32A | 0.176
C3A G32C | 0.114
C3A G32U | 0.0959
C4A A22G | 0.222
C4A A22C | 0.131
C4A A22U | 0.22
C4A C46A | 0.146
C3G G54A | 0.177
C4A A28G | 0.247
C4A A28C | 0.0846
C4G A31G | 0.238
C4A C37A | 0.159
C4A C37G | 0.0599
C4G G51U | 0.223
C4G G51C | 0.207
C3U G27C | 0.177
C3U G27A | 0.187
C4G G25C | 0.157
C3G A22C | 0.227
C3A G69U | 0.212
C3A G69A | 0.275
C3G U52A | 0.332

Variant | self-cleavage
C3A G54U | 0.403
C4A A30C | 0.0814
C4G A11U | 0.232
C4G A11C | 0.113
C4A G68C | 0.141
C4A G68A | 0.17
C3G G15A | 0.281
C3A G21A | 0.567
C3A G21U | 0.655
C3U G69A | 0.16
C4G A45U | 0.112
C4G U67C | 0.0875
C3A G15C | 0.65
C3U A49U | 0.214
C4A C12G | 0.245
C3A C46G | 0.105
C3U C12U | 0.345
C3A G40C | 0.0884
C3G U20C | 0.302
C3G C4G | 0.244
C4U A22U | 0.362
C4G A36G | 0.248
C4G U8C | 0.0934
C3G A47G | 0.179

Variant | self-cleavage
C4A C66A | 0.146
C3U A59U | 0.205
C4A A44G | 0.0937
C4A A44C | 0.0924
C3A U58G | 0.274
C3A U58C | 0.811
C3A U58A | 0.637
C4G G13C | 0.178
C3U G56C | 0.182
C3U G56U | 0.0961
C3U A24G | 0.494
C3U A24U | 0.491
C4G U7C | 0.15
C4G U7A | 0.143
C4G U9A | 0.162
C4A G42A | 0.111
C4G G34U | 0.977
C4G G34A | 0.5
C4A U20G | 0.259
C4G G69C | 0.193
C4G A43U | 0.053
C4G A43C | 0.121
C3A U62A | 0.184
C3A U62G | 0.101

Variant | self-cleavage
C3A A49G | 0.426
C4G C6A | 0.195
C3G A11U | 0.28
C4A G56U | 0.166
C4G A71C | 0.483
C3G A49G | 0.148
C4A U70A | 0.25
C4A U70C | 0.119
C4A G25U | 0.214
U2G U67A | 0.139
C3G U5C | 0.132
C4A A23C | 0.222
C3U A35G | 0.717
C3A U8G | 0.541
C3G G32U | 0.141
C3G G32C | 0.0586
C4A A43C | 0.0588
C4G C12G | 0.216
C3U U20A | 0.374
C3U C18U | 0.487
C3G U14C | 0.238
C3U G51A | 0.467
C3A G34A | 1.07
C4G G19C | 0.194

Variant | self-cleavage
C3U G34C | 1.03
C3U G40A | 0.169
C4G A59U | 0.212
C4G A59G | 0.169
C4G A59C | 0.15
C3A G68A | 0.172
C3A G68C | 0.211
C3U U9G | 0.337
C3A A44C | 0.123
C3G G42U | 0.188
C4G U60G | 0.147
C4G U60A | 0.105
C4A A47U | 0.0985
C4G C16A | 0.304
C4G C16U | 0.194
C3A U67C | 0.155
C3G A44C | 0.153
C4G U20A | 0.225
C3A C16U | 0.769
C3A C16G | 0.587
C3G G25U | 0.138
C3G G25A | 0.146
C3A U60G | 0.338
C3G U60G | 0.0943

Variant | self-cleavage
C4G U33C | 0.0651
C4G U33G | 0.13
C3G A31G | 0.0813
C3G A31C | 0.0694
C3G A31U | 0.057
C3A G56C | 0.147
C3G A26U | 0.214
C3A A24G | 0.704
C4U A24G | 0.272
C4U A24C | 0.33
C3G C66U | 0.251
C3A C66A | 0.188
C3A C66U | 0.435
C3A C66G | 0.234
C4A A64G | 0.134
C3G G29A | 0.148
C4G G21A | 0.0893
C3A U7G | 0.703
C3A U7A | 0.822
C3G U7G | 0.281
C4A U14G | 0.0473
C4A U14C | 0.115
